Experimental data reported in publication PMC7144898 (Nucleic Acids Research, 2020).

Molecular target: T1, Recombinant N-terminal (His)6-tagged P. abyssi ASH-Ski2, full length (Pyrococcus abyssi, UniProt Q9V2M1 1-855)
T1 sequence (looked up): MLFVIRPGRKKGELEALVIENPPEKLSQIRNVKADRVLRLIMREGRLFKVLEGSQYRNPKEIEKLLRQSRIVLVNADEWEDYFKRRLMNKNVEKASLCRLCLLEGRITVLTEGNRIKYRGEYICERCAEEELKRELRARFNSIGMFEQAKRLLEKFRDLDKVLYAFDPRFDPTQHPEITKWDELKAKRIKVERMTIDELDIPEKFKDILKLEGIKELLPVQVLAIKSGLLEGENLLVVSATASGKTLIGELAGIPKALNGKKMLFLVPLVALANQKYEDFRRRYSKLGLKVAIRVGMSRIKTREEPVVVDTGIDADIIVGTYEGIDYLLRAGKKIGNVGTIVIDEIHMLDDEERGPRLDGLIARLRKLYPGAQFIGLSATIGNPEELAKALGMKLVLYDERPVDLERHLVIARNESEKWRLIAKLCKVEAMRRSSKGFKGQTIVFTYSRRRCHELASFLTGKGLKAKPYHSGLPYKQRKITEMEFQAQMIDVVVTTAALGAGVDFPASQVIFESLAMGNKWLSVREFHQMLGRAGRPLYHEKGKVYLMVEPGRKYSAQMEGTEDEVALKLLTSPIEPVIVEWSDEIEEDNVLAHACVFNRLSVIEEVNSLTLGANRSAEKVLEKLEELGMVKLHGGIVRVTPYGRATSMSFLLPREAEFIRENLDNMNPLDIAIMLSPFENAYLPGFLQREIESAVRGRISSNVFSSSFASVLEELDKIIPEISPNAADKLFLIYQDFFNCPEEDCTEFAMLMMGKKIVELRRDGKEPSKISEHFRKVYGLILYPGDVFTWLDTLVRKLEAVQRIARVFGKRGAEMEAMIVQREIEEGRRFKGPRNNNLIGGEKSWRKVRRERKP
Assay: co-sedimentation

binding result: binds
B1: Recombinant aRNase J from P. abyssi with C-terminal (His)6-tag (enzyme, Pyrococcus abyssi, UniProt Q9V076 1-451, looked up)
chain: MWEEINMIKIYTLGGYEEVGKNMTAVEYNGEVVIVDMGIRLDRVLIHEDVEFQKMSSKDLRKLGAIPDDRPIRNKKVVAIALSHGHLDHIGAVGKLAPHYPDVPIYGTPYTIRLAKSEIKGEEYFEVTNPLYETNYGEIVQVSENLAIEFVQITHSIPQSSIVVIHTPEGAVVYACDYKFDNNHPYGERPDYKRLKELGKEGVKVLIAESTRVAEETKTPSEAVAKMLLEDFFLYEGMEADGLIATTFASHIARLQELIEIANKMGRQAIFIGRSLAKYTGIAKQLGLIKMKGSRVLRSPNAVSKVLKEVSQARENYLLIVTGHQGEPGAILTRMANGELYDIGPRDTVVFSAGVIPNPLNVAQRYALETKLRMKGVRMIKNLHVSGHASKEDHRYLIRMLNPEYIVPAHGEFRMLTHYAELAEEEGYMIGKEVFISRNGHVVEIPGSLEG
